According to patent publication US20220042996A1, “COMPOSITIONS AND METHODS RELATED TO LATROPHILINS AS BIOMARKERS FOR HAEMATOPOIETIC CELL CANCER” (priority 2015, published 2022):
“Also recorded” adds a separate entry of the source.

B1: LTX (protein)
chain: EGEDLTLEEKAEICSELELQQKYVDIASNIIGDLSSLPIAGKIAGTIAAAAMTATHVASGRLDIEQTLLGCSDLPFDQIKEVLENRFNEIDRKLDSHSAALEEITKLVEKSISVVEKTRKQMNKRFDEVMKSIQDAKVSPIISKINNFARYFDTEKERIRGLKLNDYILKLEEPNGILLHFKESRTPTDDSLQAPLFSIIEEGYAVPKSIDDELAFKVLYALLYGTQTYVSVMFFLLEQYSFLANHYYEKGYLEKYDEYFNSLNNVFLDFKSSLVGTGTSNNEGLLDRVLQVLMTVKNSEFLGLEKNGVDEMLNEKINLFNKIKEEIEGKQKMTLSETPENFAQISFDKDITTPIGDWRDGREVRYAVQYASETLFSKISHWSDPVSVREKACPTLRMPVDQTRRNVLVFRKFDSSKPQLVGEITPYLSNFIDIDRDLYNAASNPDSAVGFKEFTKLNYDGANIRATFDHGRTVFHAAAKSGNDKIMFGLTFLAKSTELNQPDKKGYTPIHVAADSGNAGIVNLLIQRGVSINSKTYHFLQTPLHLAAQRGFVTTFQRLMESPEININERDKDGFTPLHYAIRGGERILEAFLNQISIDVNAKSNTGLTPFHLAIIKNDWPVASTLLGSKKVDINAVDENNITALHYAAILGYLETTKQLINLKEINANVVSSPGLLSALHYAILYKHDDVASFLMRSSNVNVNLKALGGITPLHLAVIQGRKQILSLMFDIGVNIEQKTDEKYTPLHLAAMSKYPELIQILLDQGSNFEAKTNSGATPLHLATFKGKSQAALILLNNEVNWRDTDENGQMPIHGAAMTGLLDVAQAIISIDATVVDIEDKNSDTPLNLAAQNSHIDVIKYFIDQGADINTRNKKGLAPLLAFSKKGNLDMVKYLFDKNANVYIADNDGMNFFYYAVQNGHLNIVKYAMSEKDKFEWSNTDNNRRDECPNEECAISHFAVCDAVQFDRIEIVKYFVGTLGNFAICGPLHQAARYGHLDIVKYLVEEEFLSVDGSKTDTPLCYASENGHFTVVQYLVSNGAKVNHDCGNGMTAIDKAITKNHLQVVQFLAANGVDFRRKNSRGTTPFLTAVAENALHIAEYLIREKRQDININEQNVDKDTALHLAVYYKNLQMIKLLIKYGIDVTIRNAYDKTALDIAIDAKFSNIVEYLKTKSGKFRR

Legend:
Format in all cases: cell-based
[1] = tested on: mTOR; assay: Phospho-S2448 mTOR ELISA in primary human AML cells; settings: AML-PB001F cells; for mTOR activation: 24 h
Description: Phosphorylation of mTOR was monitored using ELISA assays as recently described (Yasinska I. M. et al (supra); Abooali M. et al (2014) Sci. Rep. 4 6307; Prokhorov A. et al (supra)). Briefly, ELISA plates were coated with mouse anti-mTOR antibodies and blocked with 2% BSA. Cell lysates were then added to the wells and kept at room temperature for at least 2 h (under constant agitation). After extensive washing with TBST buffer (Tris-Buffered Saline and Tween 20), […] mTOR antibody was added and plates were incubated for at least 2 h at room temperature with constant agitation. Plates were then washed with TBST buffer and incubated with 1:1000 Horse Radish Peroxidase-labelled goat anti-rabbit IgG in TBST buffer. After extensive washing with TBST, bound secondary antibodies were then detected by the peroxidase reaction (ortho-phenylenediamine/H2O2).
(§1) Primary human AML mononuclear cells (AML-PB001 F, newly diagnosed/untreated) were purchased from AllCells (Alameda, Calif., USA) and handled in accordance with manufacturer's instructions.
(§2) Experiments were carried out to ascertain whether or not LPHN 1 and LPHN 2 are expressed and function in primary human AML cells. AML-PB001 F primary human mononuclear blasts were used and exposed for 24 h to 1 μg/ml LPS, 500 pM LTX or a combination of these ligands.
(§3) To analyse LPHN1/2 expression levels in AML-PB001F cells, the cells were exposed to mTOR activators (1 μg/ml LPS, 0.1 μg/ml SCF or 2 μg/ml anti-Tim-3 antibody) for 4 h.

[2] = tested on: primary healthy human leukocytes; assay: Latrophilin protein expression by Western blot in primary healthy human leukocytes; settings: primary leucocytes from healthy donors, 4 or 24 h exposure
Description: Primary AML-PB001F cells were exposed for 4 h (A) and healthy human leukocytes for 4 h (B) or 24 h (C) to indicated concentrations of LPS, SCF and anti-Tim-3. Following cell lysis, latrophilin protein levels were analysed by Western blot. Phospho-S2448 mTOR was measured by ELISA. Furthermore, non-treated THP-1 cells, primary human AML cells and primary healthy human leukocytes, as well as those stimulated for 24 h with 1 μg/ml LPS were subjected to quantitative real time polymerase chain reaction qRT-PCR (D). Images show one representative result of at least four experiments, which gave similar results. Data are mean values±SD (n=4). *-p<0.05; **-p<0.01.
Levels of LPHN 1 and LPHN 2, total and phospho-T389 p70 S6K1 were determined by Western blot analysis and compared to β-actin in order to determine equal protein loading, as described by Yasinska I. M. et al (Cell. Mol. Life Sci. (2014) 71 699-710). Li-Cor goat secondary antibodies, conjugated with fluorescent dyes, were used according to the manufacturer's protocol to visualise the proteins of interest using a Li-Cor Odyssey imaging system. Western blot data were analysed quantitatively using Odyssey software and values were normalised against respective β-actin bands. […]

[3] = tested on: AML-PB001F primary human AML cells; assay: LPHN1/2 protein levels by Western blot in primary human AML cells; settings: 4 h, 1 μg/ml LPS, 0.1 μg/ml SCF or 2 μg/ml anti-Tim-3 antibody
Description: Levels of LPHN 1 and LPHN 2, total and phospho-T389 p70 S6K1 were determined by Western blot analysis and compared to β-actin in order to determine equal protein loading, as described by Yasinska I. M. et al (Cell. Mol. Life Sci. (2014) 71 699-710). Li-Cor goat secondary antibodies, conjugated with fluorescent dyes, were used according to the manufacturer's protocol to visualise the proteins of interest using a Li-Cor Odyssey imaging system. Western blot data were analysed quantitatively using Odyssey software and values were normalised against respective β-actin bands.
as §1, §3

[4] = tested on: AML-PB001F primary human AML cells; assay: IL-6 release by ELISA in primary human AML cells; settings: 24 h
Description: (§4) Concentrations of IL-6 released into the cell culture media were analysed by ELISA (R&D Systems assay kit) according to the manufacturers protocol.
as §1, §2

[5] = tested on: U937 human AML cells; assay: IL-6 release by ELISA in U937 cells; settings: 24 h, 500 pM LTX in combination with 1 μg/ml LPS
Description: (§5) THP-1 and U937 human leukaemia monocytic macrophages were obtained from the European Collection of Cell Cultures (Salisbury, UK). Cells were cultured in RPMI 1640 media supplemented with 10% foetal calf serum, penicillin (50 IU/ml) and streptomycin sulphate (50 μg/ml).
as §4
(§6) Expression of LPHN 1 and LPHN 2 in human AML cell lines—U937 and THP-1—was investigated. Cells were stimulated for 24 h with 1 μg/ml LPS, 500 pM LTX or a combination of these ligands. LPS is a pathogen-associated molecular pattern shared by Gram-negative bacteria and is recognised by the Toll-like receptor 4 (TLR4), which is highly expressed by human myeloid cells. Importantly, LPS was chosen because TLR4 may be targeted by endogenous ligands (like proteins released by dysfunctional mitochondria) to promote expression/release of IL-6 and other important cytokines/growth factors required for leukaemia cell survival.

[6] = tested on: THP-1 human AML cells; assay: IL-6 release by ELISA in THP-1 cells; settings: 24 h, 500 pM LTX in combination with 1 μg/ml LPS
Description: as §5, §4, §6

[7] = 500 pM LTX in combination with 1 μg/ml LPS
[8] = 1 μg/ml LPS alone or 500 pM LTX alone

Molecule	phosphorylation of S2448 in mTOR (mTOR activation) ([1]; 4 h, 1 μg/ml LPS, 0.1 μg/ml SCF or 2 μg/ml anti-Tim-3 antibody)	latrophilin expression [2]	LPHN1/2 expression [3]	LPHN2 expression [3]	IL-6 exocytosis [4, 7]	IL-6 release [4, 8]	LPS-induced IL-6 exocytosis [5]	mTOR activation [1, 7]	mTOR activation [1, 8]	LPS-induced IL-6 exocytosis [6]
SCF: Human Stem Cell Factor protein produced in E. coli; binds Kit (CD117)	significantly increased; also recorded: strongest effect	not inducible	significantly up-regulated	significantly up-regulated	–	–	–	–	–	–
B1	–	–	–	–	significantly up-regulated	did not influence	highly up-regulated	significantly up-regulated	did not influence	highly up-regulated
